Measurements from PMC8782923, “A Klotho-derived peptide protects against kidney fibrosis by targeting TGF-β signaling” (Nature Communications, 2022).
Where “and” joins values, the source holds several entries; their conditions need not be identical. Identical values can stand only once.

System: NRK-49F cells
Experiment: α-SMA mRNA induced by TGF-β1 in NRK-49F cells (qRT-PCR)
Assay type: cell-based, rat
Conditions: TGF-β1 2 ng/ml, KP1 or sKlotho 10 µg/ml, individual values, n = 4, Fig. 1b
Protocol: Normal rat kidney interstitial fibroblasts (NRK-49F) and human proximal tubular epithelial cells (HKC-8) were cultured at 37 °C. NRK-49F cells were serum-starved for 24 h and were pretreated with KP1 (10 µg/ml, 3 µM) for 1 h prior to incubation with TGF-β1 (#240-B; R&D Systems) at 2 ng/ml. Cells were collected at 45 min or 24 h after TGF-β1 treatment, respectively. Whole-cell lysates were prepared and subjected to Western blot analyses. For some experiments, cells were transiently transfected with expression vector human secreted Klotho (sKlotho) that only contains KL1 domain[48], by using Lipofectamine 2000 reagent (Invitrogen, Grand Island, NY) prior to treatment with TGF-β1.
Total RNA was isolated from NRK-49F cells by using a TRIzol RNA isolation system (Invitrogen, Carlsbad, CA). The cDNA was synthesized using 2 µg of RNA in 20 µl of reaction buffer containing AMV-RT (Promega, Madison, WI), random primers, and oligo primers at 42 °C for 60 min. Quantitative, real-time PCR (qRT-PCR) was performed using a Platinum SYBR Green qPCR Super Mix-UDG kit (Invitrogen). The sequences of the primer pairs: F: […]; R: […]. QPCR data were collected by Step one software v2.2.2.

B1: sKlotho: soluble Klotho; expression vector human secreted Klotho contains only KL1 domain (protein)
chain: EPGDGAQTWARFSRPPAPEAAGLFQGTFPDGFLWAVGSAAYQTEGGWQQHGKGASIWDTFTHHPLAPPGDSRNASLPLGAPSPLQPATGDVASDSYNNVFRDTEALRELGVTHYRFSISWARVLPNGSAGVPNREGLRYYRRLLERLRELGVQPVVTLYHWDLPQRLQDAYGGWANRALADHFRDYAELCFRHFGGQVKYWITIDNPYVVAWHGYATGRLAPGIRGSPRLGYLVAHNLLLAHAKVWHLYNTSFRPTQGGQVSIALSSHWINPRRMTDHSIKECQKSLDFVLGWFAKPVFIDGDYPESMKNNLSSILPDFTESEKKFIKGTADFFALCFGPTLSFQLLDPHMKFRQLESPNLRQLLSWIDLEFNHPQIFIVENGWFVSGTTKRDDAKYMYYLKKFIMETLKAIKLDGVDVIGYTAWSLMDGFEWHRGYSIRRGLFYVDFLSQDKMLLPKSSALFYQKLIEKNGFPPLPENQPLEGTFPCDFAWGVVDNYIQVSQLTKPISSLTKPYH
- α-SMA mRNA expression (relative): 10.7876 and 4.655 and 3.074 and 8.483
